According to the nanobody polyreactivity screen of Harvey et al. (2022):

Assay: yeast display, Sf9 membrane polyspecificity reagent, FACS + sequencing; frameworks hold sequencing errors
Procedure, shortened: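 Using colony PCR, genes from sorted yeast display clones were amplified, then sequenced on MiSeq at 2 × 250 and filtered by CDR length. The clones had been stained with 10% biotinylated, detergent-solubilized Sf9 membrane reagent for 1 hour at 4 °C and sorted by FACS into low and high (top ~1%) gates on anti-HA and streptavidin fluorescence. Polyreactivity labels come from the gate of origin.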

Sequence	polyreactivity (PSR sort gate)
QVQLVESGGGLVQAGGSLSLICAAYGSTLGVYAMGWYIQAPGKERELVAAISSGGSTTYADSVKGRFTISRDNAKNTVYLQMNSLKPEDTAVYYCAADRYEGYVTWYWWGAYNYDYWGQGTQVTVSS	high polyreactivity
QVQLEESGGGLVQAGGSLRLTCAASGRTFDFYAMGWYRQAPGKEREFVAAITFSTGSTTYADSVKGRFTISRDNAKNTVYLQMNSLKPEDTAVYYCNADAFNKISYVWYDYWGQGTQVTVSS	low polyreactivity
QVQLVESGGGLVQAGGSLRLSCAASGRTFTFNAMGWYRQAPGKERELVARIDWRGITYADSVKGRFTISRDNAKNTVYLQMNSLKPEDTAVYYCAAVWLHIRGFFFQYDYWGQGTQVTVSS	low polyreactivity
QVQIVESGGGLVQAGGSLRLSCAASGIIFDYYAMGWYIQAPGKERELVATITSGGSTNYADSVKGRFTISRDNAKNTVYLQMNSLKPEDSAVYYCAARTYWFPDIYPGLGMDYWGHGTQVTVSS	low polyreactivity
QVQLVESGGGLVQAGGSLRLSCAASGITFRYYAMGWYRQAPGKERELVAAISIRGRTYYADSVKGRFTISRDNAKNTVYLQMNSLKPEDTAVYYCAAVKRVVAFDYWGQGTQVTVSS	low polyreactivity
QVQLVESGGGLVQAGGSLRLSCAASGSTFTYNDMGWYRQAPGKERELVARITFSSGRTYYADSVKGRFTISRDNAKNTVYLQMNSLKPEDTAVYYCARQWYWRPGYYIGQGYEYWGQGTQVTVSS	low polyreactivity
QVQLVESGGGLVQAGGSLRLSCAASGRTFVKNAMGWYRQAPGKERELVAAISRTGSTNYADSVKGRFTISRDNAKNTVYLQMNSLKPEDTAVYYCAAVRYDYWGQGTQVTVSS	low polyreactivity
QVQLVESGGGLVQAGGSLRLSCAASGRIIFAYTMGWYRQAPGKERELVAAISSSGSTYYADSVKGRFTISRDNAKNTVYLQMNSLKPEDTAVYYLRVQRRAYRYDYWGQGTQVTVTS	high polyreactivity
QVQLVESGGGLVQAGGSLRLSCAASGRIFRAYAMGWYRQAPRKERELVAAISYRGGSTYYADSVKGRFTISRDNAKNTVYLQMNSLKPEDTAVYDCAADSDRSVWIYGYWGQGTQVTVSS	low polyreactivity
QVQLLESGGGLVQAGGSLRLSCAASGTNFDYYLMGWYRQAPGKERELVAAISWSGASTYYADSVKGRFTISRDNAKNTVYLQMNSLKPEDSAVYYCAADYCVKTLIDYDYWGEGTQVTVSS	low polyreactivity
QVQLVESGGGLVQAGGSLRLSCAASGRILSKNAMGWYRQAPGKERELVAAIRGSTGITYYADSVKGRFTISRDNAKNTVYLQMNSLKPEDTAVYYCAAVVQGGFYWGQGTQVTVSS	high polyreactivity
QVQLVESGGGLVQAGGSLRLSCAASGFTFVTNAMGWYRQAPGKERELVAAISRRGGSTYYADSVKGRFTISRDIAKNTVNLEMNSLKPEDTAVYYCNADRQRRRQFSFSSPYDYWGQGTLVTVSS	high polyreactivity
QVQLVESGGGLVQAGGSLRLSCAASGFISYYYAMGWYRQAPGKEREFVAAITSSGGSTRYADSVKGRFSISRDNATNTVYLQMNSLKPEDTAVYYCAAGNPYFWPYDYWGQGTQVTVSS	low polyreactivity
QVQLVESGGGLVQAGGSLRLSCAASGRIFPYYAMGWYRQAPGKDRELVAANSYRGPRTSYADSVKGRFTISRDNAKNTAYLQRNSLKPEDTAVYYCAAVSVSWRGGRSSYEYWGQGTQVTVSS	high polyreactivity
QVQLVESGGGLVQAGGSLRLSCAASGSIFSRNAMGWYRQAPGKEREFVARISWSSTSTNYADSVKGRFTISRDNAKNTVYLQMISLKPEVTAVDYCSADFRGDRRFDYWGQGTQVTVSS	low polyreactivity
QVQLVESGGGLVQAGGSLRLSCAASGRIFTYYTKGWSRQAPGKERELVAAITRGGITNYADSVKGRFTISRDNAKNTVYLQMNSLKPEDTAVYYCNAVARVYSEGIRYGYWGQGTQVTVSS	high polyreactivity
QVQLVESGGGLVQAGGSLRLSCAASGSIFGRYAMGWYRQAPGKEMELVAAISTGDSTYYADSVKGRFTISRDNAKNTVYLQMNSLKPEDTAVYYCNRRGRRGYDYWGQGTQVTVSS	high polyreactivity
QVQLVESGGGLFQAGRSLRLICAASGRIFNQYPMGWSRQAPGKETELVAAIRRSSDSTYYADSVKGRFTISRDNAKNTVYLQMNSLTPEDSAVYYCATDGYRRWVWMEYWGQGTQVTVSS	low polyreactivity
QVQLVESGGGLVQAGGSLRLSCAASGSIFARYAMGWYRQAPGKERELVAALSGSGASTYYADSVKGRFTISRDNAKNTVYLQMNSLKPEDTAVYYCARPFLRRPTYRFETGYGYWGQGTQVTVSS	high polyreactivity
QVQLVEAGGGFVQAGGRLRLSCAASGSIFTLNTRGWYSPAPGKEREWVAAMTGSGGITYSADSVKGRFTISRDKAKKTVYLQLNSLKPEETAVYYCAADTGYVHAGYWGQGTQVTVSS	low polyreactivity
QVQLVESGGGLVQAGGSLRLSCAASGRNFEVYTMGWYRQAPGTERELVDAIDRSTGSTYYADSVKGRFTISRDNAKNTVYLQMNSLKPEDTAVYDCAARGTFLGTRPLGRFDYWGQGTQVTVSS	low polyreactivity
QVQLVESGGGLVQAGGSLRLSCAASGSIFNYYAMGWYRQAPGKERELVAAITSGVSTYADSVKGRFTISRDNAKNTVYLQMNSLKPEVTAVYYCADRVTGPRGDYWGQGTQVTVSS	low polyreactivity

Sequence	polyreactivity (PSR sort gate)
QVQLVESGGGLVQAGGSLRLSCAASGRTFAAYAMGWYRQAPGKEREFVADITYSGGSTTYADSVKGRFTISRDNAKNTVYLLMNSLNPEDTAVYYCNKLAYTPGWRGFVWYDYWGQGTQVSVSS	low polyreactivity
QVQLVESGGGLVQAGGSLRISCAASGLTFQYNAMGWYRQAPGKERELVAAISSSGGSTYYADSVKGRFTISRDNAKNTVYLQMNSLKPEDTAVYYCNAYSQSWNFYGDGDYWVQGTQVTVSS	low polyreactivity
QVQLVESGGSLVQAGGSLRLSSAASGITFSDYAMRWYRPAPGKESELVAGITSGGSTYYADSVKGRFTISRDNAKNTVYLQMNSLKPEDSAVYYCAAVRRWKYDWGQGTQVTVSS	high polyreactivity
QVQLVESGGGLVQAGGSLRLSCAASGSIFSANARGWYRQAPGKERELVASITGDGSTNYADSVKGRFTISRDNAKNPGYLQMNSLKPEDTAVYYCAADIGSWYDYWGQGTQVTGSS	low polyreactivity
QVQLVESGGGLVQAGGSLRLSCADSGSTYGGYAMGWYRQAPGKERELVAAISQSGGRTYYADSVKGRFTISRDNAKITVYFQMNSLKPEDTAVYYCAAYRTGYGRFTLDYWGQGSQVTVSS	high polyreactivity
QVHLVESGGCLVQAGGSLRLSCAASGRIFGVYVMGWYRQARGTEREFVAAITWSGGRTYYADSVKGRFTISRDNAKNTVYFQMNSLKPQDTAVYYCAARRSYEYVYWGKGTQVTVSS	high polyreactivity
QVQLVESGGGLVQAGGSLRLSCAASGRTFYRYAMGWYRQAPGKERELVAAITSGDRTDYADSVKGRFTISRDNAKNTVYLQMNSLKPEDTAVYYCAADPYYVTDYDYWGEGTQVTVSS	low polyreactivity
QVQLVESGGGLVQAGGILRLSCAASGYILYGYAMGWYTQAPGKERELVAAISNDGSTYYADSVKGRFTISRDNAKNTVYLQMNSLKPEDTAVYYCNADAWRKVPHPGTGGRDYWGQGTQVTVSS	high polyreactivity
QVQLVESGGGLVQAGGSLRLSCAASFYVYAMGWYRQAPGKERELVAAITYSGGGTYYADSVKGRFTISRDNAKNTVYLQMNSLKPEDTAVYYCAADDYFYDYDYWGQGTQVTVSS	low polyreactivity
QVQLVESGGGLVQAGGRLRLSCAASGLICNANPMGWYRQAPGKEREFVAAITTSGGKTYYADSVKGRFTISRDNAKYTVYLQMNSLKPEDTAVYYCAATDLYFWYPYWFAFEYDYWGLGTQVTVSS	high polyreactivity
QVQLVESGGGLVQAGGSLRLSCAASVRTFWYNAMGWYRQAPGKERELVAVISSGAITYYADSVKGRFTISRDNAKNTVYLQMNSLKPEDTAVYYCNAQRRGTYYWGQGTQVTVSS	high polyreactivity
QGQLVESGGGLVQAGGSLRLSCAASGRTFSVNDMGWYRQAPGKERELVAAMSFSGGRTYYADSVKGRFTISRDNAKNTVYLQMNSLKPEDTAVYYCAADIRGYDYWGQGTQVTVSS	high polyreactivity
QVQLVESGGGLVQAGGSLRLSCSASGIIFRGYAMGWYRQAPRKERELVAGITSGGDTNYADSVKGRFTISRDNAKNTVYLQMNSLKPEETAVYYCNVALQAKGMGYWGQGTQVTVSS	low polyreactivity
QVQLVESGGGLVQAGGSLRLSCAASGRIFLYYTMGWYRQAPGKERELVAAITRSGGSTYYADSVKGRFTISRDNAKNTVYLQMISLKPEDTAVYYGADRYWERYRAFNYWGQGTQVTVSS	high polyreactivity
QVQLVESGGGLVQAGGSLRLSCAASGRIFGGYAMGWYRQAPGKERELVAAISNGGRTNYADSVKGRFTISRDNAKNTVYLQMISLKPEDTAVYYCAARNYKPYGYYRIYDSWGQGTQVTVSS	high polyreactivity
QVQLVESGGGLVQAGGSLRLSCAASGSTFGFYMGWYRQAPGKERELVAAIDSSGGITYADSVKGRFTISRDNAKNTVYLQMNSLKPEDTAVYYCNTSYPIAPEDDYWGQGTQVTVSS	low polyreactivity
QVQLVESGGGLVQAGGSLRLSCAASGFIFRSYDMGWYRQAPGKERELVAAITRGGRTYYADSVKGRFTISRDNAKNTVYLQMNSLKPEDTAVYYCAARGTHVADGYYWGQGTQVTVSS	high polyreactivity
QVHLVESGGGLFQAGGSLRISCSASGSIFARNAMGWYRQAPGKERELVAAISRSGGSTYYADSVKGRFTISRDNAMMTVSFQMNSLKPEDTAVYYCAAVRRRTVGYNYWGQGTQVTVSS	high polyreactivity
QVQLVESGGGLVQAGGSLRLSCAASGSTFWYYGMGWYRQAPGKERELVAAITRGGSTYYADSVKGRFTISRDNAKNTVYLQMISLNPEDTAVYYCAAGISVRWSPSYYYWGQGTQVTVSS	high polyreactivity
QVQLVESGGGLDQAGGSLRLSCAASGLIFSQYTMGWYRQAPGKERELVASITWRGGSTYADSVKGRFTISRDNAKNTVYLQMNSLKPEDTAVYYCAADYKPSYYLRQSYGYWGQGTQVTVSS	low polyreactivity
QVQLVESGGGLVQAGGSLRLSCPASGLIIGVYAMGWYRQEPGKERELVAAITDGGSTYYADSVKGRFTISRDNAKNTVYLQMNSLKPEDTAVYYCNAEFRSSDYDYWGQGTQVTVSS	low polyreactivity
